From the DeepSol protein solubility set

Assay: soluble on expression in E. coli; label from the status in PepcDB or PDB records

Sequence | soluble on expression in E. coli
MGSDKIHHHHHHMENESKLVEVDEKHLQFRVAREAFVSEQILSGEYEKIFDRCWLYVGHVSEFSKPGDFVTRTIARRNLLVTMGTDNRINAFFNTCPHRGATVCRDRAGNSKNFQCFYHGWVFGCDGNLKSQPGKDRYCADFIASGAGNLVSVPRFDIYAGFCFVSFNAEVEPLPDYLAGAKEYLDLVSRYSESGMAISSGTQEYAIRANWKLLVENSVDGYHAVSTHATYLDYLKNTNGSLSSTKLEGTSYDLGNGHAVLEYTAPWGRPIASWVPLWGEQGKKEIDQIYARLVELHGEDMADRMAHKNRNLLIFPNLVVNDIMAITVRTFYPQAPNYMLVNGWSLAPREESEWAKKFRLSNFLEFLGPGGFATPDDVEALESCQNGFSNYRLVPWSDISKGMGKASPNYDDELQMRAFWTRWNQYISGSPSPQATIRRLPSATAA | not soluble
MNAQRVVVMGLGNLLWADEGFGIRVAERLYARYHWPEEVEIVDGGTQGLNLLGYVEQASHLLLLDAIDYGLAPGSLRTYAGEKIPAYLSAKKMSLHQNSFSEVLALADIRGHLPCHIALVGLQPALLDDYGGSLSEIARSQLPAAEQAALAQLAAWGIVPQANEVARCLNYKCLSMENYEGVRIRQYQTRLEGKRSGE | not soluble
MSDITLDIADFHWVTQILDTMDSGLIVLDPEYNVCVWNSFMQSYSGVLSQDILGQCLFDHFDELPRTWLETKLKASADLETRSFSSWENRPYLFKFNNFSPVSNSCDFMFQDIVITPLRSLSGEVSHIAIQVNDVSETARNRIHLRETNQHLSEISRKDGL | not soluble
MGHHHHHHSHMMAALSRKMRVAPFKVGPDYIDPGYHGMAAGHQGRNLDSVMCGIDLIGPLYAHGSANADIAVVEGVMGLFDGRIAQGQNTADAQAQGSSAEIAATLGLPVVLVVDVRGMSQSVGAVVRGFATADPHVRIAGVILNKVGTDRHAEVCREAVEAVGVRVLGAIP | not soluble
MHTGCCTTKFDTEVLIIGNGPAGIALSSFLSGMHPFYDATHPHENVTVHEKLLANHDFSLIDQDLSWSSNLTELSQSGRPLSVLYDMLVRPGADMGSDAPGCIQWELNRRREIPHMVIGETKIGGSWNEYDAEMLTVSFSDWMDMPGFTMEQWLGGRPLVKRLPSVAIATYLKKYVERLRLRKKFHQYFVVNSIKKIGDVWVTSGKRSTDGRSFVIRSKQVVVACGKTSPRKLQLPNEEHCSSNIVYDVRALKERLDATKKTVIDEDENYDTPSTSTCSPVIVVGDGVSSVDCVRHCLERDIPVVHVIRRTLRELRNVMLSRLSPIHYSEYTDIYRMMIGRSVHKNYQRVLDASITSVSKIHVEITTGSNREIIEMPYSTVAVCIGRESHFSTVFENAHTFLDYQSEQDETLFAVGAYAGDHFVRFLVGGCLRVAQHITGAANNNNVTAKLLPIC | not soluble
MGSDKIHHHHHHMEEFEGEAIVEAENVVSIMLRREAAERADEILHFSYWSGEIKELDAPGYLDRWQKKCYHATCSLDEGEILLVVGPPGSGKTTFIAEAARKLSEEERVWVTSNTNIAVDNVLEKLERALRIGHPSKITAGVRRHSVEYNLLSGIRFSDYREYASKVAEAYREIARIQNDMIRKGKIVVGSTILKGMMSALKNYDFDTVIIDEASNTCISTALLALEKAEKAVVVGDPYQLPPVYEVGGHKAAKFSAYNFLINIYGKNLWLRRHYRSNAKIAEFAARHVYGFLEIDEKCRRIKIEPCKTTIPEVGDPEKPLVFIDCNGVERREGRSKVNEEEAEVVAMIAEELAECVGEENVGVITPYVKQAELIRGILSEFGVMVEVSTVHSYQGREKDVVIYSITATGNPYFASEKRLFNVALTRARKKFIAVGNSKALEGKNLLLTRFMVAAIKEGGFVRLR | not soluble
MASGVTVNDEVIKVFNDMKVRKSSTPEEIKKRKKAVLFCLSDDKKQIIVEEAKQILVGDIGDTVEDPYTAFVKLLPLNDCRYALYDATYETKESKKEDLVFIFWAPESAPLKSKMIYASSKDAIKKKFTGIKHEWQVNGLDDIKDRSTLGEKLGGNVVVSLEGKPL | soluble
MSLSADKLYIDKELSWLSFNERVLQEAADKTVPLIERIRFLGIFSNNLDEFYKVRFADVKRQILINRERGGNDISKHLLSRMQSKALKLNQDFDNLYNELILEMARRRIFLVNETQLDEIQLKWVKKYFHKEVLPHVTPIMLRDDIDVMQFLKDEYAYIAVEMRSGDEFKYALIEIPTDQLPRFVMLPEQKGKRRKTIILLDNIIRLCLDEIFRGFYDYDTLNGYAMKMTRDAEYDLRHEVEYSLLEQMSEGLSQRLTALPVRFVYEREMPEAMLKFLCYKLKISHYDSLIPGGRYHNFKDFISFPNVGRDYLENKPLPPMTCADFEGYANAFDAIRAQDILLHYPYHSFEHMTELVRQASFDPKVVSIKINIYRVAKDSKLMNSLVDAVHNGKRVVVVVELQARFDEEANIEWSRILTDAGVHVIFGVPGMKIHAKLLLITRKEGDEFVRYAHIGTGNFHERTARIYTDFALLTANQELAAEVRAVFGYIENPFRPVKFNHLIVSPRNSRTQIYRLLDSEIANAKAGKKAAITLKVNNLVDKGLINKLYGASAAGVKIRMIIRGMCSLVPGVEGVSDNIEIISIIDRFLEHPRVLVVHNDGNPQVFISSADWMERNIDHRIEVMAPIRDERLKQRIIDILNIQFIDTVKARRIDKEMSNQYVERGNRRKVRSQIAIYDYLKNVEKQTRKAKGQQETNDNSSQEGHHHHHH | soluble
MSASVSLTTPVSVSCLINDVNPSVKAKKEDATAVTTTQAPKIAEAIHRSTPTLADNVLYDSTSYTHGVTTGSTNVPISSGQRPQQADYSLALLAKDVYAPTSGNLNGFVRLSDERLLAAGIDPTALSDSASGFLAGIYSDNQQYVLSFAGTNDRHDWLSNIRQAVGYEDVQYNEAVALGKTAKMAFGDALVITGHSLGGGLAATAALATGTFAVTFNAAGVAKNTLKRLGMDSAKARRSAENGGIRSYSEKYDLLTGIQELTSLIPNAVGHKIVLANSDKLTGVDDWLPHKHLERRISAHSIEKVLSSMSEQQPWERRYV | not soluble
MLAPWQPLLEWWFGWGTSAQAVADEKSTLWFGKHYDADAHALFGDLVEHALAGGLEEWQQTPQGWLGLLILLDQLPRMIYRDTPRAFEGDRRAQVVAMQGLQKGWDYQLLPIQRVFVLLVLEHAEVLDWQNLCVERYRMLLDEQPEANRRLFEGFLDYAEQHQRVIARFGRFPHRNLVLERPSTSEEMDFLLEPGSRF | not soluble
GHHHHHHAIAENLYFQSHGHGGYDSDFSDDEHCGESSKRKKRTVEDDLLLQKPFQKEKHGKVAHKQVAAELLDREEARNRRFHLIAMDAYQRHRKFVNDYILYYGGKKEDFKRLGENDKTDLDVIRENHRFLWNEEDEMDMTWEKRLAKKYYDKLFKEYCIADLSKYKENKFGFRWRVEKEVISGKGQFFCGNKYCDKKEGLKSWEVNFGYIEHGEKRNALVKLRLCQECSIKLNFHHRRKEIKSKKRKDKTKKDCEESSHKKSRLSSAEEASKKKDKGHSSSKKSEDSLLRNSDEEESASESELWKGPLPETDEKSQEEEFDEYFQDLFL | soluble
MAHHHHHHMDQSRHKRTARHQYLGARTKITLKLQLTRIQHRGFHVHVHSRTTPLDRQAHEDALQQRDVECLLWRVKMQQIQQNRSGEGHVDKAQTTHTGIRIVHGADPATVNAAGLRVLRIGERERPKTVRNRSWQTRVTVAASSTHALTAADAARPRSEAHGVHSARATVQHRHGRPNIEVDSVIRHRRAS | not soluble
MGRIIILDENTANQIAAGEVVERPASVVKELVENSIDAGSTNISVEINNGGISFIKVVDNGSGIEEDDIEIAFERHATSKIRRASDLEAITSLGFRGEALASIASVSTVEVTSRPAHREYGRYVKIQGGTVLESGQVGCPAGTTFIVRDLFYNTPARFKFLKKDSTEAGYVSDIVSRIALGNPDISFRLINNKNTVIHTPGNNDLLSTIYSLYGKETAKECMEISYEDETVKITGYAGSPEIARANRNYQSIYLNKRYIKNKVISSAIDEAYKTYLMKNKFAFIVLYIELNPLLVDVNVHPTKMEVRFSREQEIFRAVYHAVNNALLSKTHIRNVSLKDSPKNYFKFEQSSKKEADYVQQRLDTDRKFSGYNYDEDFKTEKTNTSKSTWENLIVKESANINKRKDETIDEVINKNEVGDKNKVISEDEVINKDEVINKDKVINKDKVINKGEVVNKVNVNEVENESVDNLINGQISGLVNWAINEPINKTNDKLIEKSDGTALKGTGEECYNFDKSGYDNILKDVSDKPKDNRNDVDNNADTNFEKIRDGKDTRPQQDIERNVFLDARIIGQVFSTYILLQNEDDLIIIDQHAAHERIRFEELKEKYARNESLAQYLLTPVVIELTNQEIVFLEEEKELFNKLGFIFESFGNNSIILRSVPIPDEGVGVKEAFLEVVDFLMSKGRKYDKIIEEDALYQIACKSAVKANKKLDEIEIKAILDKLNMLQNPYTCPHGRPTVVKITKYEFEKMFKRIV | not soluble
MGSDKIHHHHHHMKGVLYISFLVCILLGCSDSDGLPDGGKDKTARTELEIVSASIVEGNTQTRADVPFTPGSSIALFCHGQAAETSYTPVNNRKYTLNSGDSKWTAESEATTIYLGSEKADVCGYYPYVEGTVGTADTLYNVRTTIPMDTQDYDPSKELYYVANQEVDAKRYFVEMHFKHAYSRLVLNIGVEDAYPATCSINSVALANDSLFRKAVIDITSGTVGIHPDDTEKQFRGGYNITKDLPYLLDSPDKKYQADLLMIPTKLLPDPFEPTKGLSVIVNVSGFPATVIIPIDDLSDFESGKKYVVSLKLRGIAIKSVTVTTTDWDEKRLNEGVDYEPLPQS | not soluble
TTPIVHLKGDANTLKCLRYRFKKHCTLYTAVSSTWHWTGHNVKHKSAIVTLTYDSEWQRDQFLSQVKIPKTITVSTGFMSIGGGTGGGSGGGS | soluble
MKTFPLQSLTIIEAQQKQFALVDSICRHFPGSEFLTGGDLGLTPGLNQPRVTQRVEQVLADAFHAQAAALVQGAGTGAIRAGLAALLKPGQRLLVHDAPVYPTTRVIIEQMGLTLITVDFNDLSALKQVVDEQQPDAALVQHTRQQPQDSYVLADVLATLRAAGVPALTDDNYAVMKVARIGCECGANVSTFSCFKLFGPEGVGAVVGDADVINRIRATLYSGGSQIQGAQALEVLRGLVFAPVMHAVQAGVSERLLALLNGGAVPEVKSAVIANAQSKVLIVEFHQPIAARVLEEAQKRGALPYPVGAESKYEIPPLFYRLSGTFRQANPQSEHCAIRINPNRSGEETVLRILRESIASI | soluble
PVSWVLQQAPTVKGLDIQGAHGSVWQGQASSVRWQRQNLGQVNWDFQWSSLFTGKAEFSVRFGRGSDMNIRGRGLVGYSLSDGLYAENLVASIPASKAVEQARLPVPIGVDGQLELNIRHATYAAPWCKTGEGTLVWSASGIQSPVGSLELGPVIADLKCQDSVLTASGEQTSTQVSSAFSAEMMPNQRYSTKAWFKPGADFPSSMGEQLKWLGQPNAQGQYEFDYKGRF | not soluble
MRQHTRIANHNHYSWRIAVMTDTHSIAQPFEAEVSPANNRHVTVGYASRYPDYSRIPAITLKGQWLEAAGFATGTAVDVKVMEGCIVLTAQPPAAEESELMQSLRQVCKLSARKQKQVQAFIGVIAGKQKVA | not soluble
MFLSVVTVAFRNYEGVVKTWRSLRNLARDPGLSFEWIVVDGGSEDGTREFLQKRHGEFNLRFISEKDRGIYDAMNKGIALAQGRYTLFLNSGDAFHDDAALFVRQLARQKGEAMYIGDALLDFGGGHKIRRKAKPGYYIYHSLPASHQAIFFPTAALKKYPYDLQYHVSSDYALAARLYKAGYPFRRINGLVSEFSMGGVSTSNNLELCQDAKNVQRKILRVPGFWAQLSYLLRLKTTGKTKARYNKVLEHHHHHH | not soluble
